In PMC10174300:

Target: T cell immunoglobulin-3 (TIM-3) (human (endogenous in CD3+ T cells from PBMCs)) (UniProt Q8TDQ0)

Sequence of Galectin-9 (O00182 whole entry): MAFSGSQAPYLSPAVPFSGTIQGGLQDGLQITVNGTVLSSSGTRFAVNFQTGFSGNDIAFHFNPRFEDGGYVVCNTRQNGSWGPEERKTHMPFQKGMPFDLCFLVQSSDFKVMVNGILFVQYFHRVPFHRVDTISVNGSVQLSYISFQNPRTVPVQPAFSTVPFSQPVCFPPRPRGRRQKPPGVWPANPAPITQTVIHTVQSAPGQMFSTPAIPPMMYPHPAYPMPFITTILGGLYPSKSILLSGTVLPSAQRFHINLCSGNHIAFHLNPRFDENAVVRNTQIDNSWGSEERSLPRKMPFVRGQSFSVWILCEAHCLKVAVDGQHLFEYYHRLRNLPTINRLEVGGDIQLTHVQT

Galectin-9 (from UniProt O00182 1-355) (ligand)
T cell proliferation (DELFIA, TRF intensity) of activated CD3+ T cells treated with Galectin-9 at 55.6 nM, against activated T cells without Galectin-9: 50%
